# According to paper PMC3041725:
# Experiments:
# [1] = biological target: VN-Exd fusion protein, expressed in Drosophila embryos (Drosophila melanogaster) (UniProt P40427); experiment: split reporter (BiFC, NanoBiT); competition against split Venus BiFC in living Drosophila embryos: an unfused ('cold') protein co-expressed with the two fusion proteins
# [2] = biological target: VC-Exd fusion protein, expressed in Drosophila embryos (Drosophila melanogaster) (UniProt P40427); experiment: split reporter (BiFC, NanoBiT); split Venus (VN 1-173, VC 155-238) BiFC in living Drosophila embryos; fusion proteins expressed by UAS/Gal4 (abdA-Gal4, en-Gal4, btl-Gal4 and others); embryos kept at 4°C for 28 h before confocal imaging
# Chain of VC-Exd fusion protein, expressed in Drosophila embryos (Drosophila melanogaster) (P40427 whole entry, the tested form may be a part): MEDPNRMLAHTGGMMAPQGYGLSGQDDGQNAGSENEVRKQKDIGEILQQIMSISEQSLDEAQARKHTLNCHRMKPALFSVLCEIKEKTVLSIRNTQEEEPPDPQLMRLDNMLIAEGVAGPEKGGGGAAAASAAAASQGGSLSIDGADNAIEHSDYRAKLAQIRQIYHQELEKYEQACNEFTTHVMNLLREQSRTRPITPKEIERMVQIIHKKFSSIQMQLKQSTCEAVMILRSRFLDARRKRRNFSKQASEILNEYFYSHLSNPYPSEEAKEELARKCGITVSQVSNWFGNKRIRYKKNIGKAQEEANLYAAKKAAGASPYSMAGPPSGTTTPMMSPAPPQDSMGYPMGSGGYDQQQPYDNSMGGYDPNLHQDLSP
# Chain of VN-Exd fusion protein, expressed in Drosophila embryos (Drosophila melanogaster) (P40427 whole entry, the tested form may be a part): as above
# Chain of AbdominalA (AbdA), unfused parental wild type protein, expressed in Drosophila embryos, P29555 1-590 (natural protein; other documents disagree on this pair) (P29555 whole entry, the tested form may be a part): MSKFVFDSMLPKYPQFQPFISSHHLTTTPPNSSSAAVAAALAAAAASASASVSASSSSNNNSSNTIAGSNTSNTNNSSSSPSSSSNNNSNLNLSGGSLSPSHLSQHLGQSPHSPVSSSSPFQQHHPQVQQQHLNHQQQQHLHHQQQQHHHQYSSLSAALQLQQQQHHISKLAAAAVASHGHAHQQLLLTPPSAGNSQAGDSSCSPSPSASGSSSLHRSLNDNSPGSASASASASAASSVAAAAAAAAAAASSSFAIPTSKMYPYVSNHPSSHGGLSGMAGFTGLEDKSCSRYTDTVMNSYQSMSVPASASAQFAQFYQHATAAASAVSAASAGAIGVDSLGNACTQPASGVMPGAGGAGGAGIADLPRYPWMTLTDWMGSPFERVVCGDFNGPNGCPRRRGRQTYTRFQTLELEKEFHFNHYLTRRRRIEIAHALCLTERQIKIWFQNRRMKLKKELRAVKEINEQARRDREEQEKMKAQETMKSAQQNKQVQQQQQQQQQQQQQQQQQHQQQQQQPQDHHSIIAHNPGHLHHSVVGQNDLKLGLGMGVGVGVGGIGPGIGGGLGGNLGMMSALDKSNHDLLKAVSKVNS
# Chain of VN-AbdA fusion protein, expressed in Drosophila embryos, P29555 1-590 (natural protein; other documents disagree on this pair) (P29555 whole entry, the tested form may be a part): as above
percent loss of BiFC between VC-AbdA and VN-Exd [1] [%],fold weaker BiFC signal than VC-AbdA/VN-Exd [2] [fold],Substance
80,,"AbdominalA (AbdA), unfused parental wild type protein, expressed in Drosophila embryos, P29555 1-590 (natural protein; other documents disagree on this pair)"
,5,"VN-AbdA fusion protein, expressed in Drosophila embryos, P29555 1-590 (natural protein; other documents disagree on this pair)"
